B1: EEHEE_rd3_1049 (parent)
chain: TTVKLGDIKVTFDNPEKAKKYAQKLAKIYQLTVHVHGDTIHVK
B2: 5KPH (parent)
chain: EEKRQVKQVAKEKLLEQSPNSKVQVRRVQKQGNTIRVELELRTNGKKENYTVEVERQGNTWTVKRITRT

The first data set covers variants of B1. Nature of the data set: folding stability dG (cDNA display proteolysis); higher = more stable. Particulars: PBS, room temperature.
Turning to TTWKLGDIKVTFDNPEKAKKYAQKLAKIYQLTVHVHGDTIHVK, the “folding stability dG” value worked out at 0.663 kcal/mol. Same read-out and setting: to TTVKLADIKVTFDNPEKAKKYAQKLAKIYQLTVHVHGDTIHVK belongs 1.24 kcal/mol; to TTVKLDDIKVTFDNPEKAKKYAQKLAKIYQLTVHVHGDTIHVK, 0.87 kcal/mol. Take TTVKLCDIKVTFDNPEKAKKYAQKLAKIYQLTVHVHGDTIHVK: the “folding stability dG” value came to 3.09 kcal/mol. In the case of TTVDLGDIKVTFDNPEKAKKYAQKLAKIYQLTVHVHGDTIHVK, the “folding stability dG” value amounted to 1.09 kcal/mol. For TTVILGDIKVTFDNPEKAKKYAQKLAKIYQLTVHVHGDTIHVK, the “folding stability dG” value was determined as 3.17 kcal/mol.

As to TTVALGDIKVTFDNPEKAKKYAQKLAKIYQLTVHVHGDTIHVK, the “folding stability dG” value stood at 1.71 kcal/mol.

With TTVTLGDIKVTFDNPEKAKKYAQKLAKIYQLTVHVHGDTIHVK, the “folding stability dG” value turned out to be 1.85 kcal/mol. Still for that read-out and setting: to TTVMLGDIKVTFDNPEKAKKYAQKLAKIYQLTVHVHGDTIHVK belongs 2.47 kcal/mol; to TTVCLGDIKVTFDNPEKAKKYAQKLAKIYQLTVHVHGDTIHVK, 3.22 kcal/mol. Consider TTVNLGDIKVTFDNPEKAKKYAQKLAKIYQLTVHVHGDTIHVK, for which the “folding stability dG” value was found to be 1.34 kcal/mol. In the case of TTVVLGDIKVTFDNPEKAKKYAQKLAKIYQLTVHVHGDTIHVK, the “folding stability dG” value is 2.91 kcal/mol. Turning to TTVQLGDIKVTFDNPEKAKKYAQKLAKIYQLTVHVHGDTIHVK, the “folding stability dG” value was 2.35 kcal/mol. Consider TTVPLGDIKVTFDNPEKAKKYAQKLAKIYQLTVHVHGDTIHVK, for which the “folding stability dG” value worked out at 0.652 kcal/mol. Take TTVWLGDIKVTFDNPEKAKKYAQKLAKIYQLTVHVHGDTIHVK: the “folding stability dG” value amounted to 2.76 kcal/mol.

Turning to TTVFLGDIKVTFDNPEKAKKYAQKLAKIYQLTVHVHGDTIHVK, the “folding stability dG” value is 2.4 kcal/mol. Regarding TTVLLGDIKVTFDNPEKAKKYAQKLAKIYQLTVHVHGDTIHVK, the “folding stability dG” value is 2.47 kcal/mol. TTVSLGDIKVTFDNPEKAKKYAQKLAKIYQLTVHVHGDTIHVK: the “folding stability dG” value came out at 1.61 kcal/mol. The same measure, in the same setting: to TTVYLGDIKVTFDNPEKAKKYAQKLAKIYQLTVHVHGDTIHVK belongs 2.5 kcal/mol; to TTVGLGDIKVTFDNPEKAKKYAQKLAKIYQLTVHVHGDTIHVK, 0.845 kcal/mol. Take TTVELGDIKVTFDNPEKAKKYAQKLAKIYQLTVHVHGDTIHVK: the “folding stability dG” value worked out at 1.6 kcal/mol.

As for TTVHLGDIKVTFDNPEKAKKYAQKLAKIYQLTVHVHGDTIHVK, the “folding stability dG” value was 2.07 kcal/mol. Still for that read-out and setting: in the case of TTVRLGDIKVTFDNPEKAKKYAQKLAKIYQLTVHVHGDTIHVK it was 2.18 kcal/mol. For ATVKLGDIKVTFDNPEKAKKYAQKLAKIYQLTVHVHGDTIHVK, the “folding stability dG” value was 1.43 kcal/mol. Turning to ETVKLGDIKVTFDNPEKAKKYAQKLAKIYQLTVHVHGDTIHVK, the “folding stability dG” value worked out at 0.641 kcal/mol. On the same count and under the same terms, in the case of HTVKLGDIKVTFDNPEKAKKYAQKLAKIYQLTVHVHGDTIHVK it was 1.56 kcal/mol; in that of VTVKLGDIKVTFDNPEKAKKYAQKLAKIYQLTVHVHGDTIHVK, 2.14 kcal/mol; in that of STVKLGDIKVTFDNPEKAKKYAQKLAKIYQLTVHVHGDTIHVK, 1.23 kcal/mol. With DTVKLGDIKVTFDNPEKAKKYAQKLAKIYQLTVHVHGDTIHVK, the “folding stability dG” value turned out to be 0.651 kcal/mol. On to FTVKLGDIKVTFDNPEKAKKYAQKLAKIYQLTVHVHGDTIHVK, for which the “folding stability dG” value was found to be 2.42 kcal/mol. As to QTVKLGDIKVTFDNPEKAKKYAQKLAKIYQLTVHVHGDTIHVK, the “folding stability dG” value was 1.06 kcal/mol. On the same count and under the same terms, in the case of WTVKLGDIKVTFDNPEKAKKYAQKLAKIYQLTVHVHGDTIHVK it was 2.77 kcal/mol; in that of YTVKLGDIKVTFDNPEKAKKYAQKLAKIYQLTVHVHGDTIHVK, 2.52 kcal/mol; in that of GTVKLGDIKVTFDNPEKAKKYAQKLAKIYQLTVHVHGDTIHVK, 0.959 kcal/mol.

With KTVKLGDIKVTFDNPEKAKKYAQKLAKIYQLTVHVHGDTIHVK, the “folding stability dG” value is 1.19 kcal/mol.

Turning to MTVKLGDIKVTFDNPEKAKKYAQKLAKIYQLTVHVHGDTIHVK, the “folding stability dG” value was determined as 2.14 kcal/mol. Turning to RTVKLGDIKVTFDNPEKAKKYAQKLAKIYQLTVHVHGDTIHVK, the “folding stability dG” value is 1.28 kcal/mol. Consider LTVKLGDIKVTFDNPEKAKKYAQKLAKIYQLTVHVHGDTIHVK, for which the “folding stability dG” value amounted to 1.76 kcal/mol. CTVKLGDIKVTFDNPEKAKKYAQKLAKIYQLTVHVHGDTIHVK: the “folding stability dG” value was determined as 3.02 kcal/mol. Still for that read-out and setting: in the case of ITVKLGDIKVTFDNPEKAKKYAQKLAKIYQLTVHVHGDTIHVK it was 2.27 kcal/mol; in that of NTVKLGDIKVTFDNPEKAKKYAQKLAKIYQLTVHVHGDTIHVK, 1.1 kcal/mol; in that of PTVKLGDIKVTFDNPEKAKKYAQKLAKIYQLTVHVHGDTIHVK, 1.02 kcal/mol.

The next data set covers variants of B2. The data set is described as above. The settings on record: PBS, room temperature.
In the case of EEKRQVKQVAKEKLLEQSPNSKVQVRRVQKQGNTIRVELELRTNGKKENYTVEVERQGNTWTVKRITRM, the “folding stability dG” value came out at 4.13 kcal/mol.

As to EEKRQVKQVAKEKLLEQSPNSKVQVRRVQKQGNTIRVELELRTNGKKENYTVEVERQGNTWTVKRITRI, the “folding stability dG” value is 3.99 kcal/mol. On the same count and under the same terms, to EEKRQVKQVAKEKLLEQSPNSKVQVRRVQKQGNTIRVELELRTNGKKENYTVEVERQGNTWTVKRITRK belongs 3.73 kcal/mol.

For EEKRQVKQVAKEKLLEQSPNSKVQVRRVQKQGNTIRVELELRTNGKKENYTVEVERQGNTWTVKRITRN, the “folding stability dG” value stood at 3.87 kcal/mol. Take EEKRQVKQVAKEKLLEQSPNSKVQVRRVQKQGNTIRVELELRTNGKKENYTVEVERQGNTWTVKRITRW: the “folding stability dG” value is 4.08 kcal/mol.

On to EEKRQVKQVAKEKLLEQSPNSKVQVRRVQKQGNTIRVELELRTNGKKENYTVEVERQGNTWTVKRITRH, for which the “folding stability dG” value was determined as 4.21 kcal/mol.

Turning to EEKRQVKQVAKEKLLEQSPNSKVQVRRVQKQGNTIRVELELRTNGKKENYTVEVERQGNTWTVKRITRR, the “folding stability dG” value stood at 3.89 kcal/mol. Consider EEKRQVKQVAKEKLLEQSPNSKVQVRRVQKQGNTIRVELELRTNGKKENYTVEVERQGNTWTVKRITRV, for which the “folding stability dG” value came to 3.86 kcal/mol.

In the case of EEKRQVKQVAKEKLLEQSPNSKVQVRRVQKQGNTIRVELELRTNGKKENYTVEVERQGNTWTVKRITRL, the “folding stability dG” value is 3.98 kcal/mol. Regarding EEKRQVKQVAKEKLLEQSPNSKVQVRRVQKQGNTIRVELELRTNGKKENYTVEVERQGNTWTVKRITRQ, the “folding stability dG” value was determined as 3.9 kcal/mol. On to EEKRQVKQVAKEKLLEQSPNSKVQVRRVQKQGNTIRVELELRTNGKKENYTVEVERQGNTWTVKRITRP, for which the “folding stability dG” value came to 2.87 kcal/mol. Same read-out and setting: in the case of EEKRQVKQVAKEKLLEQSPNSKVQVRRVQKQGNTIRVELELRTNGKKENYTVEVERQGNTWTVKRITRY it was 4 kcal/mol; in that of EEKRQVKQVAKEKLLEQSPNSKVQVRRVQKQGNTIRVELELRTNGKKENYTVEVERQGNTWTVKRITRG, 3.7 kcal/mol. Consider EEKRQVKQVAKEKLLEQSPNSKVQVRRVQKQGNTIRVELELRTNGKKENYTVEVERQGNTWTVKRITRS, for which the “folding stability dG” value worked out at 3.75 kcal/mol.

The values above are taken from the MegaScale stability set (Tsuboyama et al. 2023).
